Results on 56 substances are retold here after patent publication US10143730B2, “Peptides and combination of peptides for use in immunotherapy against various cancers” (immatics biotechnologies GmbH, priority 2015, dated 2018).

The target of this test is T1, HLA-A*02 (Homo sapiens, UniProt P04439, D140Y/D185E/D98H/E176V/E277Q/G131W/G231S/I119V/I121R/I166T/I218V/L300P/N151K/N90K/P208A/P217A/Q86G/Q94H/R138H/R169H).
T1 construct: made in house
As to the kind of experiment: MHC binding assay, UV-ligand exchange with beta2m ELISA (peptide exchange yield). Particulars: binding to HLA-A*02. From the text: Candidate peptides for T cell based therapies according to the present invention were further tested for their MHC binding capacity (affinity). The individual peptide-MHC complexes were produced by UV-ligand exchange, where a UV-sensitive peptide is cleaved upon UV-irradiation, and exchanged with the peptide of interest as analyzed. Only peptide candidates that can effectively bind and stabilize the peptide-receptive MHC molecules prevent dissociation of the MHC complexes. To determine the yield of the exchange reaction, an ELISA was performed based on the detection of the light chain (β2m) of stabilized MHC complexes. The assay was performed as generally described in Rodenko et al. (Rodenko et al., 2006).
96 well MAXISorp plates (NUNC) were coated over night with 2 ug/ml streptavidin in PBS at room temperature, washed 4× and blocked for 1h at 37° C. in 2% BSA containing blocking buffer. Refolded HLA-A*02:01/MLA-001 monomers served as standards, covering the range of 15-500 ng/ml. Peptide-MHC monomers of the UV-exchange reaction were diluted 100 fold in blocking buffer. Samples were incubated for 1h at 37° C., washed four times, incubated with 2 ug/ml HRP conjugated anti-32m for 1h at 37° C., washed again and detected with TMB solution that is stopped with […]. Absorption was measured at 450 nm. Candidate peptides that show a high exchange yield (preferably higher than 50%, most preferred higher than 75%) are generally preferred for a generation and production of antibodies or fragments thereof, and/or T cell receptors or fragments thereof, as they show sufficient avidity to the MHC molecules and prevent dissociation of the MHC complexes.
As to “42 (LLDSVSRL; listed as Homo sapiens) [compound 42]”, the “Peptide exchange (MHC class I binding score, peptide exchange yield)” value (“Peptide exchange” below) is recorded as “+ (<20% = +)”.

Regarding “112 (SLGKFTFDV; listed as Homo sapiens) [compound 112]”, the “Peptide exchange” value is “++++ (> = 75% = ++++)”.

On to “89 (QLAPVFQRV; listed as Homo sapiens) [compound 89]”, for which the “Peptide exchange” value was “++ (20%-49% = ++)”.

With “62 (ALNPELVQA; listed as Homo sapiens) [compound 62]”, the “Peptide exchange” value is reported as “++ (20%-49% = ++)”.

“121 (FTIFRTISV; listed as Homo sapiens) [compound 121]”: the “Peptide exchange” value is given as “+++ (50%-75% = +++)”.

In the case of “136 (FLFGGVLMTL; listed as Homo sapiens) [compound 136]”, the “Peptide exchange” value was “++ (20%-49% = ++)”.

On to “25 (TMDSVLVTV; listed as Homo sapiens) [compound 25]”, for which the “Peptide exchange” value was “+++ (50%-75% = +++)”.

“133 (ALLPRLHQL; listed as Homo sapiens) [compound 133]”: the “Peptide exchange” value is “++++ (> = 75% = ++++)”.

“74 (TLFGYSVVL; listed as Homo sapiens) [compound 74]”: the “Peptide exchange” value was “+++ (50%-75% = +++)”.

As to “101 (ALADFMLSL; listed as Homo sapiens) [compound 101]”, the “Peptide exchange” value is listed as “+++ (50%-75% = +++)”.

With “19 (SISDNVWEV; listed as Homo sapiens) [compound 19]”, the “Peptide exchange” value is listed as “+++ (50%-75% = +++)”.

As to “82 (FIFDEAEKL; listed as Homo sapiens) [compound 82]”, the “Peptide exchange” value is on record as “+ (<20% = +)”.

Regarding “65 (SVVPDVRSV; listed as Homo sapiens) [compound 65]”, the “Peptide exchange” value is recorded as “++ (20%-49% = ++)”.

In the case of “94 (LLLPAVPVGA; listed as Homo sapiens) [compound 94]”, the “Peptide exchange” value is recorded as “+++ (50%-75% = +++)”.

“54 (VLNPLITAV; listed as Homo sapiens) [compound 54]”: the “Peptide exchange” value is given as “+++ (50%-75% = +++)”.

As for “114 (QLIQTLHAV; listed as Homo sapiens) [compound 114]”, the “Peptide exchange” value is recorded as “+++ (50%-75% = +++)”.

For “120 (VTPVTVSAV; listed as Homo sapiens) [compound 120]”, the “Peptide exchange” value is “+ (<20% = +)”.

With “66 (KLIFSVEAV; listed as Homo sapiens) [compound 66]”, the “Peptide exchange” value is reported as “+++ (50%-75% = +++)”.

Consider “147 (YLMDDTVEI; listed as Homo sapiens) [compound 147]”, for which the “Peptide exchange” value is on record as “++++ (> = 75% = ++++)”.

Consider “41 (ALFENTPKA; listed as Homo sapiens) [compound 41]”, for which the “Peptide exchange” value is reported as “++ (20%-49% = ++)”.

As for “238 (GLYERPTAA; listed as Homo sapiens) [compound 238]”, the “Peptide exchange” value is recorded as “++ (20%-49% = ++)”.

Regarding “253 (ALAELIDNSL; listed as Homo sapiens) [compound 253]”, the “Peptide exchange” value is listed as “+++ (50%-75% = +++)”.

For the substance “76 (AVGPVHNSV; listed as Homo sapiens) [compound 76]”, the “Peptide exchange” value is “++ (20%-49% = ++)”.

“73 (YTLREVDTV; listed as Homo sapiens) [compound 73]”: the “Peptide exchange” value is on record as “++ (20%-49% = ++)”.

As to “256 (SLGEEQFSV; listed as Homo sapiens) [compound 256]”, the “Peptide exchange” value was “++ (20%-49% = ++)”.

Regarding “115 (SLDPDTLPAV; listed as Homo sapiens) [compound 115]”, the “Peptide exchange” value was “++ (20%-49% = ++)”.

Turning to “125 (SLADYEHFV; listed as Homo sapiens) [compound 125]”, the “Peptide exchange” value is reported as “++++ (> = 75% = ++++)”.

With “21 (AIQDEIRSV; listed as Homo sapiens) [compound 21]”, the “Peptide exchange” value was “+++ (50%-75% = +++)”.

Take “58 (YLLPLLPAL; listed as Homo sapiens) [compound 58]”: the “Peptide exchange” value is “+++ (50%-75% = +++)”.

For “236 (STIAILNSV; listed as Homo sapiens) [compound 236]”, the “Peptide exchange” value is on record as “+++ (50%-75% = +++)”.

Turning to “44 (SLFETAWEA; listed as Homo sapiens) [compound 44]”, the “Peptide exchange” value is listed as “+++ (50%-75% = +++)”.

Consider “106 (FINDSIVYL; listed as Homo sapiens) [compound 106]”, for which the “Peptide exchange” value is “+++ (50%-75% = +++)”.

In the case of “242 (WLYGEDHQI; listed as Homo sapiens) [compound 242]”, the “Peptide exchange” value is “++ (20%-49% = ++)”.

On to “77 (TLIDEQDIPLV; listed as Homo sapiens) [compound 77]”, for which the “Peptide exchange” value is “+++ (50%-75% = +++)”.

On to “84 (ALCPRIHEV; listed as Homo sapiens) [compound 84]”, for which the “Peptide exchange” value is “++++ (> = 75% = ++++)”.

With “262 (FMVDKAIYL; listed as Homo sapiens) [compound 262]”, the “Peptide exchange” value is “+++ (50%-75% = +++)”.

Consider “123 (VLDPALPALV; listed as Homo sapiens) [compound 123]”, for which the “Peptide exchange” value is listed as “++ (20%-49% = ++)”.

As for “152 (MMVGDLLEV; listed as Homo sapiens) [compound 152]”, the “Peptide exchange” value was “+++ (50%-75% = +++)”.

In the case of “98 (RLFPDFFTRVAL; listed as Homo sapiens) [compound 98]”, the “Peptide exchange” value is “++ (20%-49% = ++)”.

As for “143 (ALLPELREV; listed as Homo sapiens) [compound 143]”, the “Peptide exchange” value is on record as “+++ (50%-75% = +++)”.

“266 (YAIGLVMRL; listed as Homo sapiens) [compound 266]”: the “Peptide exchange” value is listed as “+++ (50%-75% = +++)”.

Turning to “105 (ALLGTKILL; listed as Homo sapiens) [compound 105]”, the “Peptide exchange” value is reported as “+++ (50%-75% = +++)”.

Regarding “108 (ILLKNLVTI; listed as Homo sapiens) [compound 108]”, the “Peptide exchange” value is given as “++ (20%-49% = ++)”.

As to “135 (HLSTIIHEA; listed as Homo sapiens) [compound 135]”, the “Peptide exchange” value is “+++ (50%-75% = +++)”.

Consider “59 (KLLDPQEFTL; listed as Homo sapiens) [compound 59]”, for which the “Peptide exchange” value is “+++ (50%-75% = +++)”.

On to “61 (AIVKEIVNI; listed as Homo sapiens) [compound 61]”, for which the “Peptide exchange” value is reported as “++ (20%-49% = ++)”.

For the substance “239 (KMNESTRSV; listed as Homo sapiens) [compound 239]”, the “Peptide exchange” value is listed as “++ (20%-49% = ++)”.

As to “104 (ALISWQPPRA; listed as Homo sapiens) [compound 104]”, the “Peptide exchange” value is on record as “+++ (50%-75% = +++)”.

For “83 (GQASYFYVA; listed as Homo sapiens) [compound 83]”, the “Peptide exchange” value was “++ (20%-49% = ++)”.

Consider “80 (KLYEADFVL; listed as Homo sapiens) [compound 80]”, for which the “Peptide exchange” value is listed as “++ (20%-49% = ++)”.

Turning to “3 (KLEENGDLYL; listed as Homo sapiens) [compound 3]”, the “Peptide exchange” value was “++++ (> = 75% = ++++)”.

As to “113 (FLERGLESA; listed as Homo sapiens) [compound 113]”, the “Peptide exchange” value is listed as “++ (20%-49% = ++)”.

In the case of “246 (TVSDVLNSV; listed as Homo sapiens) [compound 246]”, the “Peptide exchange” value is listed as “+++ (50%-75% = +++)”.

For the substance “39 (HLLEGSVGV; listed as Homo sapiens) [compound 39]”, the “Peptide exchange” value was “+++ (50%-75% = +++)”.

Turning to “259 (ILLPRIIEA; listed as Homo sapiens) [compound 259]”, the “Peptide exchange” value is on record as “+++ (50%-75% = +++)”.

Regarding “157 (TLTSLLAQA; listed as Homo sapiens) [compound 157]”, the “Peptide exchange” value is recorded as “+++ (50%-75% = +++)”.
